Laboratory results published in US8034783B2, “Prodomain modulators of ADAM 10” (Biozyme, Inc., priority 2006, dated 2011).

Test system: MMP 1, 2, 3, 9, 13, 14
Experiment: Inhibition assays with MMPs
Type: biochemical
Experimental: Inhibition assays with MMPs. The fluorescent substrate Dabcyl-GPLGMRGC (Fluorescein)-NH2 (SEQ ID NO 18) (10 μM) in assay buffer containing 50 mM Tris, pH 7.5, 150 mM NaCl, 2 mM CaCl2, 5 μM ZnSO4, and 0.01% Brij-35 was used to monitor enzyme activities. MMPs 1, 2, 3, 9, 13, and 14 (0.1-20 nM) were incubated with substrate in the absence or presence of prodomain (3-30 μM). Fluorescence intensities were measured every 3-5 minutes at an emission wavelength of 530 nm (excitation 485 nm).
Calculation of inhibition constants. The amount of activity was calculated by subtracting the ADAM 10 prodomain control from the ADAM 10 prodomain with enzyme. All inhibition assays were performed at room temperature and the data fit to the following equation using Sigma Plot software:
[formula] where If is fractional inhibition, I is the inhibitor concentration and Ki is the inhibition constant.

Ki (read-out: inhibition constant, MMP 1, 2, 3, 9, 13, 14): > 2000 nM
B1: C173S ProADAM 10 23-213 (C-terminal His tag): mouse ADAM 10 prodomain 23-213 with cysteine 173 mutated to serine, C-terminal His tag (protein, UniProt O35598 23-213, looked up, variant C173S)
chain: NPLNKYIRHYEGLSYNVDSLHQKHQRAKRAVSHEDQFLLLDFHAHGRQFNLRMKRDTSLFSDEFKVETSNKVLDYDTSHIYTGHIYGEEGSFSHGSVIDGRFEGFIKTRGGTFYIEPAERYIKDRILPFHSVIYHEDDINYPHKYGPQGGSADHSVFERMRKYQMTGVEEGARAHPEKHAASSGPELLRKK
modifications: pro-form C-terminal His tag
notes: mouse ADAM 10 prodomain 23-213 with cysteine 173 mutated to serine, C-terminal His tag
inhibition of matrix metalloproteinases 1, 2, 3, 9, 13 and 14 (3 μM prodomain): not inhibited
